Measured values published in patent US5811533, “High-affinity oligonucleotide ligands to vascular endothelial growth factor (VEGF)” (NeXstar Pharmaceuticals, Inc.).

Columns and labels:
[1] = target: T1, VEGF165 (recombinant human vascular endothelial growth factor, 165 aa form) (Homo sapiens, UniProt P15692-4 P15692-4:27-191); assay: filter; PBS, 0.01% HSA, 37 C; Kd1, X1 0.70, Kd2 38 nM; conditions: tags: gift from N. Ferrara, Genentech; chain copies: 2 (dimer, stated); label: 32P
Experimental: (§1) Internally-labeled RNA ligands used for binding studies were prepared by in vitro transcription using T7 RNA polymerase (Milligan et al. (1987) Nucl. Acids Res. 15:8783) and were purified on denaturing polyacrylamide gels to ensure size homogeneity. All RNA ligands were diluted to about 1 nM in PBS, denatured at 90° C. for 2 minutes, and then cooled on ice prior to incubation with the protein. This denaturation/renaturation cycle performed at high dilution is necessary to ensure that the RNA is essentially free from dimers and other higher order aggregates. Concentrations of the stock solutions of VEGF, from which other dilutions were made, were determined from the absorbance reading at 280 nm using the calculated value for ε280 of 46,600 M^-1cm^-1 for the VEGF dimer (Gill et al. (1989) Anal. Biochem. 182:319). Data sets that define the binding curves were fit to either eq. 2 or eq. 5 by the non-linear least squares method using the software package Kaleidagraph (Synergy Software, Reading, Pa.). […]

[2] = target: T1, VEGF165 (recombinant human vascular …); assay: filter; PBS, 0.01% HSA, 37 C; Kd1, X1 0.76, Kd2 182 nM; conditions: tags: gift from N. Ferrara, Genentech; chain copies: 2 (dimer, stated); label: 32P
Experimental: as §1

bFGF = bFGF (UniProt P09038 P09038:143-288); assay: filter; specificity; conditions: label: 32P
Experimental: (§2) Dissociation constants were determined using the nitrocellulose filter partitioning technique.

antithrombin III = antithrombin III (UniProt P01008 P01008:33-464); assay: filter; specificity; conditions: label: 32P
Experimental: as §2

[3] = target: T1, VEGF165 (recombinant human vascular …); assay: filter; PBS, 0.01% HSA, 37 C; Kd1, X1 0.40, Kd2 11 nM; conditions: tags: gift from N. Ferrara, Genentech; chain copies: 2 (dimer, stated); label: 32P
Experimental: as §1

[4] = target: T1, VEGF165 (recombinant human vascular …); assay: inhibition; VEGF receptor binding; single value printed in Ki column; conditions: tags: gift from N. Ferrara, Genentech; chain copies: 2 (dimer, stated)
[5] = target: T1, VEGF165 (recombinant human vascular …); assay: filter; monophasic; conditions: tags: gift from N. Ferrara, Genentech; chain copies: 2 (dimer, stated)
[6] = target: T1, VEGF165 (recombinant human vascular …); assay: filter; Kd1, X1 0.68, Kd2 ~100 nM; conditions: tags: gift from N. Ferrara, Genentech; chain copies: 2 (dimer, stated)
[7] = target: T1, VEGF165 (recombinant human vascular …); assay: filter; conditions: tags: gift from N. Ferrara, Genentech; chain copies: 2 (dimer, stated)
[8] = target: T1, VEGF165 (recombinant human vascular …); assay: inhibition; VEGF receptor binding; conditions: tags: gift from N. Ferrara, Genentech; chain copies: 2 (dimer, stated)
[9] = target: T1, VEGF165 (recombinant human vascular …); assay: filter; Kd1, X1 0.82, Kd2 10-100 nM; conditions: tags: gift from N. Ferrara, Genentech; chain copies: 2 (dimer, stated)
[10] = target: T1, VEGF165 (recombinant human vascular …); assay: filter; PBS, 0.01% HSA, 37 C; Kd1, X1 0.45, Kd2 21 nM; conditions: tags: gift from N. Ferrara, Genentech; chain copies: 2 (dimer, stated); label: 32P
Experimental: as §1

[11] = target: T1, VEGF165 (recombinant human vascular …); assay: filter; PBS, 0.01% HSA, 37 C; Kd1, X1 0.82, Kd2 42 nM; conditions: tags: gift from N. Ferrara, Genentech; chain copies: 2 (dimer, stated); label: 32P
Experimental: as §1

[12] = target: T1, VEGF165 (recombinant human vascular …); assay: filter; Kd1, X1 0.54, Kd2 9 nM; conditions: tags: gift from N. Ferrara, Genentech; chain copies: 2 (dimer, stated)
[13] = target: T1, VEGF165 (recombinant human vascular …); assay: filter; PBS, 0.01% HSA, 37 C; Kd1, X1 0.53, Kd2 31 nM; conditions: tags: gift from N. Ferrara, Genentech; chain copies: 2 (dimer, stated); label: 32P; asymmetrical internal loop
Experimental: as §1

[14] = target: T1, VEGF165 (recombinant human vascular …); assay: filter; PBS, 0.01% HSA, 37 C; monophasic; conditions: tags: gift from N. Ferrara, Genentech; chain copies: 2 (dimer, stated); label: 32P; bulged hairpin
Experimental: as §1

[15] = target: T1, VEGF165 (recombinant human vascular …); assay: filter; PBS, 0.01% HSA, 37 C; Kd1, X1 0.19, Kd2 10 nM; conditions: tags: gift from N. Ferrara, Genentech; chain copies: 2 (dimer, stated); label: 32P
Experimental: as §1

[16] = target: T1, VEGF165 (recombinant human vascular …); assay: filter; Kd1, X1 0.79, Kd2 ~100 nM; conditions: tags: gift from N. Ferrara, Genentech; chain copies: 2 (dimer, stated)
[17] = target: T1, VEGF165 (recombinant human vascular …); assay: filter; PBS, 0.01% HSA, 37 C; Kd1, X1 0.54, Kd2 181 nM; conditions: tags: gift from N. Ferrara, Genentech; chain copies: 2 (dimer, stated); label: 32P
Experimental: as §1

[18] = target: T1, VEGF165 (recombinant human vascular …); assay: filter; Kd1, X1 0.42, Kd2 ~100 nM; conditions: tags: gift from N. Ferrara, Genentech; chain copies: 2 (dimer, stated)
[19] = target: T1, VEGF165 (recombinant human vascular …); assay: filter; PBS, 0.01% HSA, 37 C; Kd1, X1 0.76, Kd2 180 nM; conditions: tags: gift from N. Ferrara, Genentech; chain copies: 2 (dimer, stated); label: 32P; bulged hairpin
Experimental: as §1

[20] = target: T1, VEGF165 (recombinant human vascular …); assay: filter; Kd1, X1 0.74, Kd2 ~100 nM; conditions: tags: gift from N. Ferrara, Genentech; chain copies: 2 (dimer, stated)
[21] = target: T1, VEGF165 (recombinant human vascular …); assay: filter; PBS, 0.01% HSA, 37 C; Kd1, X1 0.73, Kd2 82 nM; conditions: tags: gift from N. Ferrara, Genentech; chain copies: 2 (dimer, stated); label: 32P
Experimental: as §1

[22] = target: T1, VEGF165 (recombinant human vascular …); assay: filter; PBS, 0.01% HSA, 37 C; Kd1, X1 0.56, Kd2 21 nM; conditions: tags: gift from N. Ferrara, Genentech; chain copies: 2 (dimer, stated); label: 32P
Experimental: as §1

[23] = target: T1, VEGF165 (recombinant human vascular …); assay: filter; Kd1, X1 0.50, Kd2 15 nM; conditions: tags: gift from N. Ferrara, Genentech; chain copies: 2 (dimer, stated)

T1 sequence (P15692 other isoform, or with tags, fused parts or gaps): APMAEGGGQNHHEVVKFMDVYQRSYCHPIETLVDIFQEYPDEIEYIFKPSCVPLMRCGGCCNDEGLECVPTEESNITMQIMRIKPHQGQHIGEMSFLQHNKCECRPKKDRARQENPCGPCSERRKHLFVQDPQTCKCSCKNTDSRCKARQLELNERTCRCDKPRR
Chain of bFGF (P09038 143-288, one chain of several): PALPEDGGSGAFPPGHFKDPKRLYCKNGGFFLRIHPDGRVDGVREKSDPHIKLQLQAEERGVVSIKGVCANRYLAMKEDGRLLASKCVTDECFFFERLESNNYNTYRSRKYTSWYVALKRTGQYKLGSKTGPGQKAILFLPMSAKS
Chain of antithrombin III (P01008 33-464, one chain of several): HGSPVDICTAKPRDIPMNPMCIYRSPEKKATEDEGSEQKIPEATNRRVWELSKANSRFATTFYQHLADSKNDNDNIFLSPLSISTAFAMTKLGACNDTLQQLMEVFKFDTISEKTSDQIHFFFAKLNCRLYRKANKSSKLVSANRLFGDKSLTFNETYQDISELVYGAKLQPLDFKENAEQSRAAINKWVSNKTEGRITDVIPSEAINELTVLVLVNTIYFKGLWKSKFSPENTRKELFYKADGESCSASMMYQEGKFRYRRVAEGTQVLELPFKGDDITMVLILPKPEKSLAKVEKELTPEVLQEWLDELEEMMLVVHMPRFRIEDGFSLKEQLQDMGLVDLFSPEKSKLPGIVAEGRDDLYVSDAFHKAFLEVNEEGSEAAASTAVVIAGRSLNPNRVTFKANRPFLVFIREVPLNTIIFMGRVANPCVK

B1: ligand 44 (ssRNA)
RNA: GGGAGCUCAGAAUAAACGCUCAAGCUUGAUGGGUGACACACGUCAUGCCGAGCUUCGACAUGAGGCCCGGAUCCGGC
[1]
  Kd: 1.7 nM

## GGCCGGUAGUCGCAUGGCCCAUCGCGCCCGG (ssRNA) [ligand 100t]
[2]
  Kd: 0.42 nM
bFGF
  Kd: 1000 nM
Antithrombin III
  Kd: 3000 nM

B2: ligand 126 (ssRNA)
RNA: GGGAGCUCAGAAUAAACGCUCAAACGGUUCUGUGUGUGGACUAGCCGCGGCCGUUCGACAUGAGGCCCGGAUCCGGC
[3]
  Kd: 0.14 nM

## ACCCUGAUGGUAGACGCCGGGGUG (ssRNA, 2'-NH2 pyrimidines) [NX-107]
[4]
  Ki: 1 nM

B3: 23A (ssRNA)
RNA: GGGAGACAAGAAUAACGCUCAAGAGGCUGAUGGCAGACGCGGCCGAAGACAUUCGACAGGAGGCUCACAACAGGC
modifications: 2'-NH2 pyrimidines
[5]
  Kd: 2.8 nM

B4: 41A (ssRNA)
RNA: GGGAGACAAGAAUAACGCUCAAAACGGAGUGGUAGGCGUUGGGUGCCAGGAAUUCGACAGGAGGCUCACAACAGGC
modifications: 2'-NH2 pyrimidines
[6]
  Kd: 0.86 nM

## CCCGTCTTCCAGACAAGAGTGCAGGG (ssDNA) [33t]
[7]
  Kd: 0.7 nM
[8]
  Ki: 3 nM

B5: 34B (ssRNA)
RNA: GGGAGGACGAUGCGGUGUGGUCAAUGUGGGGUAGGGCUGGUAGGGCAUUCCGUACUGGUGUGGUCAGACGACUCGCCCGA
modifications: 2'-NH2 pyrimidines
[9]
  Kd: 0.068 nM

B6: ligand 84 (ssRNA)
RNA: GGGAGCUCAGAAUAAACGCUCAAUAGUUGGAGGCCUGUCCUCGCCGUAGAGCGUUCGACAUGAGGCCCGGAUCCGGC
[10]
  Kd: 0.82 nM

B7: ligand 100 (ssRNA)
RNA: GGGAGCUCAGAAUAAACGCUCAACCGGUAGUCGCAUGGCCCAUCGCGCCCGGUUCGACAUGAGGCCCGGAUCCGGC
[11]
  Kd: 0.2 nM

B8: 44B (ssRNA)
RNA: GGGAGGACGAUGCGGAACCGAGUCGUGUGGGUUGGGGCUCCAGUACAUCCCCGGUCUGGGUGUCAGACGACUCGCCCGA
modifications: 2'-NH2 pyrimidines
[12]
  Kd: 0.14 nM

## GGCUCAAUAGUUGGAGGCCUGUCCUCGCCGUAGAGC (ssRNA) [ligand 84t]
[13]
  Kd: 1.8 nM

## GGUCAACGGUUGAGUCUGUCCCGUUCGAC (ssRNA) [ligand 40t]
[14]
  Kd: 20 nM

B9: ligand 40 (ssRNA)
RNA: GGGAGCUCAGAAUAAACGCUCAAGACCCAUCGUCAACGGUUGAGUCUGUCCCGUUCGACAUGAGGCCCGGAUCCGGC
[15]
  Kd: 0.19 nM

B10: 24A (ssRNA)
RNA: GGGAGACAAGAAUAACGCUCAACCCUGAUGGUAGACGCCGGGGUGCCGGAAUUCGACAGGAGGCUCACAACAGGC
modifications: 2'-NH2 pyrimidines
[16]
  Kd: 0.71 nM

## GGAACGGUUCUGUGUGUGGACUAGCCGCGGCCGUU (ssRNA) [ligand 126t]
[17]
  Kd: 1.4 nM

B11: 14A (ssRNA)
RNA: GGGAGACAAGAAUAACGCUCAAGCAACAGAGGCUGAUGGUAGACGCCGGCCAUUCGACAGGAGGCUCACAACAGGC
modifications: 2'-NH2 pyrimidines
[18]
  Kd: 0.7 nM

## GGAAGGGAACCUGCGUCUCGGCACCUUCG (ssRNA) [ligand 12t]
[19]
  Kd: 1.1 nM

B12: 26B (ssRNA)
RNA: GGGAGGACGAUGCGGCACCUUCGUGGGGUCAAGGAGGGUCGCGAGGCCGCAGGAUCAACCGUGUGCAGACGACUCGCCCGA
modifications: 2'-NH2 pyrimidines
[20]
  Kd: 0.37 nM

## GGAAGCUUGAUGGGUGACACACGUCAUGCCGAGCU (ssRNA) [ligand 44t]
[21]
  Kd: 0.48 nM
bFGF
  Kd: 600 nM
Antithrombin III
  Kd: 12000 nM

B13: ligand 12 (ssRNA)
RNA: GGGAGCUCAGAAUAAACGCUCAAGCAGACGAAGGGAACCUGCGUCUCGGCACCUUCGACAUGAGGCCCGGAUCCGGC
[22]
  Kd: 0.48 nM

B14: 32B (ssRNA)
RNA: GGGAGGACGAUGCGGCAACAUUGGCACCAAUGCUCUGUGUUAAUGUGGGGUGGGAACGGCGCCGCAGACGACUCGCCCGA
modifications: 2'-NH2 pyrimidines
[23]
  Kd: 0.05 nM
